According to patent US20190338026A1 (University of Texas, published 2019):

T1: human LAIR1 extracellular domain (ECD) protein with 6 HIS tag at the C-terminus (human, UniProt Q6GTX8 22-165)
T1 construct: Produced recombinantly in HEK293 cells; the whole entry is named here; also called LAIR1 ECD; LAIR1-ECD
T1 chain: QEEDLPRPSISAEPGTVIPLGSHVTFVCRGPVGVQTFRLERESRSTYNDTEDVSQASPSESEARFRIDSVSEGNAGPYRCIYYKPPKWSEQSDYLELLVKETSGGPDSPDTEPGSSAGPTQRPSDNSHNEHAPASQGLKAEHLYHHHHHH

T2: LAIR1 on LAIR1 reporter cells (human, UniProt Q6GTX8 22-165, limits assumed)
T2 chain: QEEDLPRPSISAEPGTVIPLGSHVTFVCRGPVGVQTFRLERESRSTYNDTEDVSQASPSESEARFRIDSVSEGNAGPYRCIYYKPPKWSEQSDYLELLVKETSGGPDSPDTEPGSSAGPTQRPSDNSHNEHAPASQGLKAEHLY


How the values were obtained:
[1] = molecular target: T1, human LAIR1 extracellular domain (ECD) …; assay: ELISA, LAIR1 ECD coated, mAb titrated, anti-rabbit HRP
Procedure: (§1) The inventors then used a concentration titration (0-10 μg/ml) by ELISA to determine the LAIR1 monoclonal antibody (mAbs) binding to human LAIR1 ECD. […] For FIGS. 2-39, X axis indicates the antibody concentrations and Y-axis is binding signals, measured as OD (450 nm). To perform the ELISA assay, LAIR1 ECD recombinant protein was coated on high absorption 96-well plates. Serial diluted (3-fold) LAIR1 mAb was added to the coated/blocked plates and detected using goat anti-rabbit F(ab′)2 conjugated HRP as secondary antibody. All assays were repeated 3 times and the titration curves were fitted using 4-parameter fitting curve using the GraphPad software for EC₅₀ estimation.
(§2) Serial dilutions of the LAIR1 monoclonal antibodies (IgGs or scFvs fragments), starting from […] and 3-fold titration down for 12 steps, were added to the 96-well plate for binding by incubating 45 minutes at 37° C. with a cover on the assay plate. Then the plates were washed with PBS containing Tween 20 (0.05% concentration) for 3 times and PBS one time. […] Detection was conducted by adding HRP substrate, TMB (ThermoFisher) for 10 minutes, and stopped by adding 50 μl/well of 2N H2504. The plates were read for absorbance at 450 nm using a plate reader (SpectraMax M4, Molecular Devices). Data were collected and graphed using a 4-parameter fitting curve with GrapPad Prism 7 software for EC₅₀ calculation.

[2] = molecular target: T1, human LAIR1 extracellular domain (ECD) …; assay: ELISA, LAIR1 ECD coated
Procedure: as §1, §2

[3] = molecular target: T2, LAIR1 on LAIR1 reporter cells; assay: cell-based or functional assay

Row | EC50 [1] [nM] | EC50 (read off the curve) [2] [ng/mL] | GFP+% of LAIR1 reporter cells, collagen I coated, soluble Ab [3] [%] | Binder
1 | 0.05 | ~20 |  | LA-61 (antibody, V domains shown, Rabbit monoclonal IgG; also called mAb LA-61) VH: EQLMEESGGRLVTPGTPLTLTCTASGFDVNAYHMGWVRQAPGKGLEWIGYIYSGGTIFYANWAKGRFTLSRTSTTVDLKITSPTTEDTATYFCARGGYDNYNILYDLWGPGTLVTISS VL: ELDMTQTPASVSEPVGGTVTIKCQASQSISVYLAWYQQKPGQPPKLLIYDASTLTSGVPSRFKGSGSGTEFTLTISDLECADAAAYYCQSYDGTPTAAFGGGTEVVVK
2 | 0.23 | ~30 |  | LA-259-1 (antibody, V domains shown, Rabbit monoclonal IgG) VH: QSVKESGGRLVTPGTPLTLTCTASGFSLYKYNIQWVRQAPGKGLEYIGASTYAGYTYYASWAKGRVTISRTSTTVDLKMTSPTTEDTATYFCARHIDGDYSGYALWGPGTLVTISS VL: ELVLTQTPASVSAAVGGTVTIKCQASQSIGTWFAWYQQKPGQSPKLLIYGPSKLASGVPPRFKGSGSGTEFTLTISDLECADAATYYCQSTYFGVDYLGGTFGGGTEVVVK
3 | 0.28 | ~40 |  | LA-142-2 (antibody, V domains shown, Rabbit monoclonal IgG) VH: AAVKESGGRLVTPGTPLTLTCTASGFSLYKYNIQWVRQAPGKGLEYIGASTYAGYTYYASWAKGRVTISRTSTTVDLKMTSPTTEDTATYFCARHIDGDYSGYALWGPGTLVTVSS VL: ELVLTQTPASVSAAVGGTVTIKCQASQSIGTWFAWYQQKPGQSPKLLIYGASNLASGVSSRFKGIRSGTEYTLTISDLECADAATYYCQCSDVGNTYGAAFGGGTEVEIN
4 | 0.25 | ~40 |  | LA-142-1 (antibody, V domains shown, Rabbit monoclonal IgG) VH: AAVKESGGRLVTPGTPLTLTCTASGFSLYKYNIQWVRQAPGKGLEYIGASTYAGYTYYASWAKGRVTISRTSTTVDLKMTSPTTEDTATYFCARHIDGDYSGYALWGPGTLVTVSS VL: ELVLTQTPASVSAAVGGTVTIKCQASQSIGTWFAWYQQKPGQSPKLLIYGPSKLASGVPPRFKGSGSGTEFTLTISDLECADAATYYCQSTYFGVDYLGGTFGGGTEVEIK
5 | 0.09 | ~10 |  | LA-171 (antibody, V domains shown, Rabbit monoclonal IgG) VH: EQSVEESGGRLVTPGGSLTLTCTVSGFSLSSYNMGWVRQAPGKGLEYIGWISLGGNTYYASWVNGRFTISKTSTTVELKISSPTTEDTATYFCARGAGSLYYGDYYFTLWGPGTLVTISS VL: ELVLTQTPSSVSAAVGGTVTIKCQASQSIYSNLAWYQQKPGQPPKLLIYKASNLASGVPSRFKGSGSGTEYTLTISDLECADAATYYCQNYYGINDYGAAFGGGTEVVVK
6 | 0.09 | ~10 |  | LA-245 (antibody, V domains shown, Rabbit monoclonal IgG) VH: QSLQESRGRLVTPGTPLTLTCTASGFSLSSYHMGWVRQAPGKGLEWIGYIHTNRNTWYANWAKGRFTISKTSSTTVNLRMTSPTTEDTATYFCARGSYGDYNFLFDVWGPGTLVTVSS VL: ELVMTQTPASVSEPVGGTVTINCQASEDISIYLAWYQQKPGQPPKLLIYDASTLESGVPSRFSGSGSRTQFTLTISDLECADAATYYCQQYSTTDTNNLFGGGTEVEIK
7 | 0.02 | ~10 |  | LA-29 (antibody, V domains shown, Rabbit monoclonal IgG; also called mAb LA-29) VH: SSSVEESGGGLVQPEGSLTLTCTASGFSFSSRYYMCWVRQAPGKGLEWIACIYNGDGSRYYASWAKGRFTISKTSSTTVTLQMTSLTAADTATYFCVRDRHTAFVDYGDDNLWGPGTLVTVSS VL: ELDLTQTPASVSEPVGGTVTIKCQASQSIYSNLAWYQQKPGQPPKLLIYRASTLASGVPSRFKGSGAGTEFTLTISDLECADAATYYCQCTYDGISYVPSSFGGGTEVVVK
8 | 0.08 | ~10 |  | LA-89 (antibody, V domains shown, Rabbit monoclonal IgG; also called mAb LA-89) VH: QSVKESGGRLVTPGTPLTLTCTVSGFSLSSNAISWVRQAPGKGLEWIGYIYGDGRTFYASWAKGRFTISKTSTTVDLKMTSLTSEDTATYFCIKSLHLWGPGTLVTISS VL: ELDMTQTASPVSAAVGGTVTINCQSSQSVYNKNQLFWYQQKPGQPPKLLIYDASTLASGVPSRYKGSGSGTQFTLTISGVQCDDAATYYCLGEYTGNIYTFGEGTEVVVK
9 | 0.05 | ~10 |  | LA-141 (antibody, V domains shown, Rabbit monoclonal IgG) VH: QSLEESGGRLVKPDESLTLTCTVSGFSLSSNAMSWVRQAPGKGLEWIGYIYGDGRTFYANWAKGRITISRTSTTVDLKMTSLRTEDTATYFCVKSLILWGPGTLVTISS VL: ELDMTQTPSPVSAAVGGTVTINCQSSHSVYNANQLYWYQQKPGQPPKLLIYDASTLASGVPSRFKGSGSGTQFTLTISGVQCDDAATYYCLGEYSGNIYVFGEGTEVEIN
10 | 0.16 | ~20 |  | LA-199 (antibody, V domains shown, Rabbit monoclonal IgG) VH: EQSVEESGGRLVTPGTPLTLTCTASGFSLSSYAMIWVRQAPGEGLEWIGDIYAGGGATYYASWAKGRFTISKTSTTVDLKITSPTTEDTATYFCARAYGSGYDLWGPGTLVTVSS VL: ELDLTQTPASVEVAVGGTVTIKCQASQSISSYLSWYQQKPGQPPKLLIYYASTMASGVPSRFSGSGSGTQFTLTISDLECADAATYYCQQGDSRSNVDNIFGGGTEVVVK
11 | 0.1 | ~10 | 1.1 | LA-82 (antibody, V domains shown, Rabbit monoclonal IgG; also called mAb LA-82) VH: EQSLEESGGDLVKPGASLTLACTASGFSFSDGYYMCWVRQAPGKGLEWIGCIHSSSGSIYYASWAKGRFTISKTSSTMVTLQMSSLTAADTATYFCARDSESYGYNPCELWGPGTLVTISS VL: ELVMTQTPASVSEAVGGTVTIKCQASQTISNYLAWYQQKPGQRPKLLIYAASSLASGVSSRFRGSRSGTEYTLTITDLECDDAATYYCQCTYYGTTYIGGAFGGGTEVEIK
12 | 4.21 |  |  | LA-258-1 (antibody, V domains shown, Rabbit monoclonal IgG) VH: QSVKESGGDLVKPEGSLTLTCKASGFSFSNSYYMCWVRQAPGKGLEWIACIYTGSTSGTYYASWVNGRFTISKTPSTTVTLQMTSLTVADTATYFCSRKLTNFNGAYLDLWGPGTLVTISS VL: ELVLTQTPASVEAAVGGTVTINCQASQSISNLLAWYQQKPGQRPKLLIYRASTLASGVSSRFKGSGSGTEYTLTISGVQCDDAATYYCQQGYTSNNVDNAFGGGTEVEIK
13 | 0.08 | ~10 |  | LA-145 (antibody, V domains shown, Rabbit monoclonal IgG) VH: SSSVEESGGRLVTPGTPLTLTCTVSGFSLSSYVMGWVRQAPGKGLEWIGTISIRSNTYYASWAKGRFTISKTSTTVDLKITSPITEDTATYFCARGAGNVYYSDYYFSLWGPGTLVTISS VL: ELVMTQPPASVSAAVGGTVTINCQASQNIYSNLAWYQQRPGQPPKLLIYKASTLASGVPSRFKGSGSGTDYTLTITDLECADAATYYCQTYYNMMDDGAAFGGGTEVEIK
14 | 0.09 | ~10 |  | LA-111 (antibody, V domains shown, Rabbit monoclonal IgG) VH: EQSVEESGGGLVAPGGSLTLTCTVSGFSLSNYHMGWVRQAPGKGLEWIGYIYTHGTTFYASWAKGRFTISKTSTTVDLKMTRLTTGDTATYFCARGGYADYNILYNLWGPGTLVTISS VL: ELVLTQTPASVEAAVGGTVTINCQASQSISSYLAWYQQKPGQPPKLLIYDASDLASGVPSRFKGSRSGTEFTFTISDLECADAATYYCQTYDSSTTAAFGGGTEVEIK
15 | 0.07 | ~10 |  | LA-6 (antibody, V domains shown, Rabbit monoclonal IgG; also called mAb LA-6) VH: EQSVEESGGDLVKPEGSLTLTCTASGFSFSSGYYMCWVRQAPGKGLEWIGCIHSSSGNIYYASWAKGRFTISKTSSTTVDLQLTSLTAADTATYFCARDSEVYGWNPNDLWGPGTLVTVSS VL: ELDMTQTPASVSEPVGGTVTIKCQASQSISSYLAWYQQKPGQRPKLLIYGASNLASGVSSRFKGSRSGTQFTLTITDLECDDAATYYCQCSYYGNSYVGGAFGGGTEVVVK
16 | 0.05 | ~7 |  | LA-56 (antibody, V domains shown, Rabbit monoclonal IgG; also called mAb LA-56) VH: SSSVEESGGRLVTPGTPLTLTCTVSGFSLSAYWVGWVRQAPGKGLEYIGFVDVDIYYASWARGRFTISKTSSTTVDLILTSPTMEDTATYFCVRMSYNAMDLWGPGTLVTISS VL: ELDLTQTASSVSAAVGDTVTINCQSSESVYKDNFLSWYQQKPGQPPKLLIYRASTLASGVPSRFKGSGSGSQFTLTISDVVCDDAATYYCSGYRNSHDGLPFGGGTEVEIK
17 | 0.1 | ~10 | 6.5 | LA-60 (antibody, V domains shown, Rabbit monoclonal IgG; also called mAb LA-60) VH: EQSLESGGGLVQPEGSLTLTCTASGFSFSNSYYMCWVRQAPGKGLEWIGCIYTGSSSGTYYASWAEGRFTISKTPSTTVTLQMTSLTAADTATYFCSRKLTNFNGAYLDLWGPGTLVTVSS VL: ELVLTQTPASVEAAVGGTVTIKCQASQSIYSYLAWYQQKPGQPPKVLIYKASTLASGVPSRFKGSGSGTEFTLTISDLECADAATYYCQNNNGGSDNTFGGGTEVVVK
